The numbers were not newly measured in patent US11147890B2, “Stimuli-responsive particles encapsulating a gas and methods of use” (Children's Medical Center Corporation, priority 2017, dated 2021), which cites them from elsewhere.

For this data set the following is noted: per gram basis.

Turning to hemoglobin, the oxygen carrying capacity is 0.17 mL/g.
